From patent US20220306765A1 (SUZHOU TRANSCENTA THERAPEUTICS, published 2022)

Legend:
human CLDN18.2 [1] = target: T1, human CLDN18.2 (human); assay: flow cytometry on HEK293-CLDN18.2 cells; unit taken from the concentration axis
T1 construct: also called hCLDN18.2; Claudin-18 splice variant 2
Protocol: (§1) Log-phase HEK293-CLDN18.2 and NUGC4 cells were re-suspended in PBS. After 3× cell wash by using FACS washing buffer (PBS+2% FBS), 100 μl/well diluted hybridoma Abs with a range from 400 nM to 0.002 nM were added into each well for incubation at 4° C. for 30 min. Again, cells were washed 3 times by using FACS washing buffer and then incubated with 100 μl/well goat anti-mIgG-FITC (1:400 dilution) at 4° C. for another 30 min. After a final 3× wash using FACS washing buffer, cells were analyzed by flow Cytometry.

human CLDN18.2-mRFP N45Q = human CLDN18.2-mRFP N45Q (human); assay: FACS, transfected HEK293, 10 µg/ml antibody;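 also: antibody binding read by flow cytometry with a FITC-labelled anti-human IgG secondary, gated on RFP-positive cells, each mutant signal expressed against wild-type CLDN18.2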
Protocol: (§2) The transfected HEK293-CLDN18.2 or HEK293-CLDN18.1 cell were resuspended in PBS with 2% BSA at density of 10\hat{ }5/well, 100 μl/well. […] Next, cells were washed 3 times by FACS washing buffer and incubated with 100 μl/well goat anti-hIgG (H+L)-FITC (1:200 dilution) at 4° C. for another 30 min. Finally, cells were washed 3 times by FACS washing buffer and analyzed by Flow Cytometry. To analyze binding to CLDN18.2 transfected cells, the RFP positive cells were used for control gating.

human CLDN18.2-mRFP A42S = human CLDN18.2-mRFP A42S (human); assay: FACS, transfected HEK293, 10 µg/ml antibody;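 also: antibody binding read by flow cytometry with a FITC-labelled anti-human IgG secondary, gated on RFP-positive cells, each mutant signal expressed against wild-type CLDN18.2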
Protocol: as §2

human CLDN18.2-mRFP N37D = human CLDN18.2-mRFP N37D (human); assay: FACS, transfected HEK293, 10 µg/ml antibody;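 also: antibody binding read by flow cytometry with a FITC-labelled anti-human IgG secondary, gated on RFP-positive cells, each mutant signal expressed against wild-type CLDN18.2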
Protocol: as §2

human CLDN18.2-mRFP Q29M = human CLDN18.2-mRFP Q29M (human); assay: FACS, transfected HEK293, 10 µg/ml antibody;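 also: antibody binding read by flow cytometry with a FITC-labelled anti-human IgG secondary, gated on RFP-positive cells, each mutant signal expressed against wild-type CLDN18.2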
Protocol: as §2

human CLDN18.2-mRFP G65P = human CLDN18.2-mRFP G65P (human); assay: FACS, transfected HEK293, 10 µg/ml antibody
Protocol: as §2

human CLDN18.2-mRFP E56Q = human CLDN18.2-mRFP E56Q (human); assay: FACS, transfected HEK293, 10 µg/ml antibody
Protocol: as §2

[2] = target: T2, human CLDN18.2-mRFP1, wild-type (human); assay: FACS, transfected HEK293, 10 µg/ml antibody
T2 construct: human CLDN18.2 (amino acid 1-261) fused to mRFP1 (amino acid 1-225), transiently expressed in HEK293 cells; also called wild-type human CLDN18.2-mRFP
Protocol: as §2

human CLDN18.2-mRFP Q47E = human CLDN18.2-mRFP Q47E (human); assay: FACS, transfected HEK293, 10 µg/ml antibody
Protocol: as §2

human CLDN18.2-mRFP L69I = human CLDN18.2-mRFP L69I (human); assay: FACS, transfected HEK293, 10 µg/ml antibody
Protocol: as §2

human CLDN18.2 [3] = target: T1, human CLDN18.2; assay: FACS, HEK293-CLDN18.2 cells
human CLDN18.2 [4] = target: T1, human CLDN18.2; assay: FACS, NUGC4 cells
human CLDN18.2 [5] = target: T1, human CLDN18.2; assay: flow cytometry on MKN45-CLDN18.2-high cells; unit taken from the concentration axis
Protocol: as §1

human CLDN18.1 = target: T3, human CLDN18.1 (human, UniProt P56856 1-261); assay: flow cytometry on HEK293-CLDN18.1 cells, one antibody concentration
T3 construct: on HEK293-CLDN18.1 cells; also called Claudin-18 splice variant 1; NP_057453.1

human CLDN18.2 [6] = target: T1, human CLDN18.2; assay: cell-based or functional assay
human CLDN18.2 [7] = target: T1, human CLDN18.2; assay: FACS, MKN45-CLDN18.2-high cells
Protocol: as §1

Chain of human CLDN18.2-mRFP Q47E (human) (chain, as listed by the source Q47E Q47E limits assumed): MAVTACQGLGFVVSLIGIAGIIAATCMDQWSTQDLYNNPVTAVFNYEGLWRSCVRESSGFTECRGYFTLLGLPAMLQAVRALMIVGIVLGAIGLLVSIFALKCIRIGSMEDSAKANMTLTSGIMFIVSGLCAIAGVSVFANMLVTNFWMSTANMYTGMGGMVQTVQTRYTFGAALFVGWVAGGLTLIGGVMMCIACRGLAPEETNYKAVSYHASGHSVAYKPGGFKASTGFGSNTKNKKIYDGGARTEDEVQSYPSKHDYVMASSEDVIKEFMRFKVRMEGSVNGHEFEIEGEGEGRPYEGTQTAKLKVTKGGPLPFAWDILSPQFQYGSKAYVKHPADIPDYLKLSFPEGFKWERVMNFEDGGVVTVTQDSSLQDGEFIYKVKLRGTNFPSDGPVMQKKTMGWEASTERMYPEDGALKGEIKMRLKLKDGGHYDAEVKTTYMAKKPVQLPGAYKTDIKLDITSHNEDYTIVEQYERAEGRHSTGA
T3 sequence (P56856 whole entry, canonical isoform): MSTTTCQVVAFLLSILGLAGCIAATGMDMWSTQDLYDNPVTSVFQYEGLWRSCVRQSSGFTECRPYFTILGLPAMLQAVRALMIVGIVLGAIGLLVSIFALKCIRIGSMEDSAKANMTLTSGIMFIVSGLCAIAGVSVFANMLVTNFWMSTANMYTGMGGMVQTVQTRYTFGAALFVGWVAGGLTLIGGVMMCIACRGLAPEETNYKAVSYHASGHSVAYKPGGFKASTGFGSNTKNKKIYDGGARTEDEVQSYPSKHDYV
Chain of human CLDN18.2-mRFP A42S (human) (chain, as listed by the source A42S A42S limits assumed): as the sequence (chain, as listed by the source Q47E Q47E limits assumed) above, with A42S, E47Q counted along it
Chain of human CLDN18.2-mRFP N45Q (human) (chain, as listed by the source N45Q N45Q limits assumed): as the sequence (chain, as listed by the source Q47E Q47E limits assumed) above, with N45Q, E47Q counted along it
Chain of human CLDN18.2-mRFP Q29M (human) (chain, as listed by the source Q29M Q29M limits assumed): as the sequence (chain, as listed by the source Q47E Q47E limits assumed) above, with Q29M, E47Q counted along it
Chain of human CLDN18.2-mRFP E56Q (human) (chain, as listed by the source E56Q E56Q limits assumed): as the sequence (chain, as listed by the source Q47E Q47E limits assumed) above, with E47Q, E56Q counted along it
Chain of human CLDN18.2-mRFP N37D (human) (chain, as listed by the source N37D N37D limits assumed): as the sequence (chain, as listed by the source Q47E Q47E limits assumed) above, with N37D, E47Q counted along it
Chain of human CLDN18.2-mRFP G65P (human) (chain, as listed by the source G65P G65P limits assumed): as the sequence (chain, as listed by the source Q47E Q47E limits assumed) above, with E47Q, G65P counted along it
Chain of human CLDN18.2-mRFP L69I (human) (chain, as listed by the source L69I L69I limits assumed): as the sequence (chain, as listed by the source Q47E Q47E limits assumed) above, with E47Q, L69I counted along it

EC50 (human CLDN18.2 [1]): 1.35 µg/mL | binding percentage vs wild-type CLDN18.2 (human CLDN18.2-mRFP N45Q): 92% | binding percentage vs wild-type CLDN18.2 (human CLDN18.2-mRFP A42S): 69.2% | binding percentage vs wild-type CLDN18.2 (human CLDN18.2-mRFP N37D): 106% | binding percentage vs wild-type CLDN18.2 (human CLDN18.2-mRFP Q29M): 83.5% | binding percentage vs wild-type CLDN18.2 (human CLDN18.2-mRFP G65P): 118% | binding percentage vs wild-type CLDN18.2 (human CLDN18.2-mRFP E56Q): 6.57% | binding percentage vs wild-type CLDN18.2 [2]: 100% | binding percentage vs wild-type CLDN18.2 (human CLDN18.2-mRFP Q47E): 109% | binding percentage vs wild-type CLDN18.2 (human CLDN18.2-mRFP L69I): 112% | EC50 (human CLDN18.2 [3]): 0.96 µg/mL | EC50 (human CLDN18.2 [4]): 7.8 µg/mL | EC50 (human CLDN18.2 [5]): 1.87 µg/mL | binding result (human CLDN18.1): no binding (tested: 10 ug/ml) | ADCC reporter assay (Jurkat-NFAT-luc-FcγRIIIA-V176), MKN45-CLDN18.2-medium target cells (human CLDN18.2 [6]): 50 fold | ADCC reporter assay, NUGC4 target cells (human CLDN18.2 [6]): > 40 fold | fold increase in binding potency vs IMAB362 (human CLDN18.2 [7]): ~2 fold
B1: 18B10-C (antibody, human IgG1, V domains shown)
VH: EFQLQQSGPELEKPGASVRISCKTSGYSFTGYNMNWVKQSNGESLEWIGNIDPYYGGTSYNQKFKGKATLTVDKSSSTAYMQLKSLTSEDSAVYYCARMYHGNAFDYWGQGTTLTVSS
VL: DIVMTQSPSSLTVTAGEKVTMSCKSSQSLLNSGNLKNYLTWYQQKPGQPPKLLIYWASTRKSGVPDRFTGSGSGTDFTLTLSSVQAEDLAVYYCQNDYSYPLTFGAGTKLELK
notes: also called chimeric 18B10
